Patent publication US7708999B2, “Remedies for arthritis” (Kyowa Hakko Kirin Co., Ltd., priority 2001, dated 2010)

Key:
[1] = test system: rabbit articular chondrocytes; assay: Degradation of extracellular matrix of rabbit chondrocytes with FGF-8; type: cell-based; details: 48 hours, FGF-8 1, 10 or 100 ng/mL tested
Method: Rabbit articular chondrocytes were isolated from both knees and shoulders of 3-week-old New Zealand white female rabbits and cultured according to the method of Tamura et al. (Tamura T. et al., Eur. J. Pharmacol., 419, 269-274, 2001). That is, the joints of both knees and the joints of both shoulders were isolated to collect the epiphyseal cartilages. […] The culture solution was removed, and the amount of glycosaminoglycan in extracellular matrix remaining on the plate was measured by the dimethymethylene blue (DMMB) method (Chandrasekhar S. et al., Anal. Biochem. 161 103-108, 1987). […] To 75 μL of this digested solution were added 25 μL of a guanidine hydrochloride buffer (2.88 mol/L guanidine hydrochloride, 50 mmol/L sodium acetate, pH 6.8) and 200 μL of a DMMB solution, and the absorbance was measured at 530/590 nm. The concentration of glycosaminoglycan of each sample was calculated from the absorbance of chondroitin sulfate (derived from whale cartilages, manufactured by Seikagaku Kogyo) used as a standard. Three experiments were performed for each condition and the mean values and the standard error were calculated.

[2] = test system: rabbit articular chondrocytes; assay: Promotion of production of matrix metalloproteinase-3 from rabbit chondrocytes with FGF-8; type: cell-based; details: 48 hours
Method: Rabbit articular chondrocytes were isolated and cultured by the method described in Example 1. After the chondrocytes became confluent, the culture solution was replaced with 0.5 vol % FBS/DMEM, followed by the culturing for 24 hours. The culture solution was removed, and 1 mL of 0.5 vol % FBS/DMEM (non-stimulated group), 0.5 vol % FBS/DMEM comprising FGF-8 (100 ng/mL)(0 group) or 0.5 vol % FBS/DMEM comprising FGF-8 (100 ng/mL) and anti-FGF-8 neutralizing antibody KM1334 (1, 3 or 10 μg/mL) was added, followed by the culturing for 48 hours. After 48 hours, the culture medium was recovered, the matrix metalloproteinase-3 concentration in the culture medium was measured using rabbit matrix metalloproteinase-3 ELISA system (manufactured by Amersham Biosciences). Three experiments were performed for each condition, and the mean values and the standard error were calculated.

rabbit synovial cells = assay: Promotion of growth of rabbit synovial cells with FGF-8 ([3H]thymidine incorporation); type: cell-based; details: FGF-8 1, 10 or 100 ng/mL tested
Method: (§1) Rabbit synovial cells were collected by the method of Hamilton et al. (Hamilton J. A. and Slywka J., J. Immunol. 126, 851-855, 1981). The isolated synovial cells were suspended in RPMI 1640 medium comprising 10 vol % FBS (FBS-comprising RPMI 1640 medium is hereinafter referred to as FBS/RPMI 1640), and 10,000 cells was inoculated at each well of a 96-well culture plate. After 24 hours of the culturing, the culture medium of each well was removed, and 200 μL of 0.2 vol % FBS/RPMI 1640 (non-stimulated group) or 0.2 vol % FBS/RPMI 1640 comprising FGF-8 (1, 10 or 100 ng/mL) was added. When the activity of the anti-FGF-8 neutralizing antibody was examined, 200 μL of 0.2 vol % FBS/RPMI 1640 comprising FGF-8 (100 ng/mL) (0 group) or 0.2 vol % FBS/RPMI 1640 comprising FGF-8 (100 ng/mL) and anti-FGF-8 neutralizing antibody KM1334 (0.1, 0.3, 1, 3 or 10 μg/ml) was added to each well. After 48 hours of the culturing, 9.25 kBq per well of [^3H]thymidine was added. The culturing was further performed for 24 hours, and the radioactivity of [^3H]thymidine incorporated in the cells was measured using a liquid scintillation counter (1205 Beta Plate, manufactured by Perkin Elmer Life Science Japan). Six experiments were performed for each condition, and the mean values and the standard error were calculated.

[3] = test system: human synovial cells derived from the rheumatoid arthritis patient; assay: Promotion of growth of human synovial cells with FGF-8 ([3H]thymidine incorporation); type: cell-based; details: FGF-8 10, 100 or 500 ng/mL tested
Method: as §1, with “When the activity of the anti-FGF-8 neutralizing antibody was examined, 200 μL of 0.2 vol % FBS/RPMI 1640 comprising FGF-8 (100 ng/mL) (0 group) or 0.2 vol % FBS/RPMI 1640 comprising FGF-8 (100 ng/mL) and anti-FGF-8 neutralizing antibody KM1334 (0.1, 0.3, 1, 3 or 10 μg/ml) was added to each well. After 48 hours of the culturing, 9.25 kBq per well of [^3H]thymidine was added.” left out
The same experiment as in Example 3 was performed using human synovial cells derived from the rheumatoid arthritis patient (procured from Toyobo). […] Six experiments were performed for each condition, and the mean values and the standard error were calculated.

[4] = test system: knee joint of Sprague-Dawley rats; assay: Induction of arthritis by intraarticular injection of FGF-8; type: in vivo, rat; details: 50 μL of 1 mg/mL FGF-8 into knee joint of rats, after 3 days
Method: Arthritis-like phenotypes were induced in Sprague-Dawley rats (male, 7 weeks old, Japan Charles River) using FGF-8 in the following manner. Fifty μL of FGF-8 solution prepared with saline(manufactured by Otsuka Seiyaku Kojo) to a final concentration of 1 mg/mL was injected into the each knee joint of rats. Further, a group that injected 50 μL of saline into the knee joint was also prepared. One group consisted of 3 rats. After 3 days from the injection of FGF-8 or saline, the inside of the knee articular capsule was washed with 30 μL of saline comprising 0.38 w/v % sodium citrate to collect the lavage fluid, according to the method of Yamada et al (Yamada A. et al., Inflamm. Res., 49, 144-146, 2000). This procedure was repeated ten times to recover 300 μL of the joint lavage fluid. The amount of glycosaminoglycan in the joint lavage fluid was measured by the DMMB method described in Example 1. The patella of the knee joint was isolated, and the cartilaginous portion was digested with papain by the method described in Example 1 to measure the […].

concentration at which FGF-8 significantly increased the production of matrix metalloproteinase-3 from the chondrocytes [2]: 100 ng/mL
B1: FGF-8: fibroblast growth factor FGF-8, androgen-induced growth factor; manufactured by Peprotech (protein, UniProt P55075 23-233, looked up)
Fibroblast growth factor 8: QEGPGRGPALGRELASLFRAGREPQGVSQQHVREQSLVTDQLSRRLIRTYQLYSRTSGKHVQVLANKRINAMAEDGDPFAKLIVETDTFGSRVRVRGAETGLYICMNKKGKLIAKSNGKGKDCVFTEIVLENNYTALQNAKYEGWYMAFTRKGRPRKGSKTRQHQREVHFMKRLPRGHHTTEQSLRFEFLNYPPFTRSLRGSQRTWAPEPR
concentration at which FGF-8 significantly decreased the residual amount of glycosaminoglycan in extracellular matrix [1]: 100 ng/mL | concentration at which FGF-8 significantly promoted the incorporation of [3H]thymidine into the rabbit synovial cells (rabbit synovial cells): 100 ng/mL | concentration at which FGF-8 significantly promoted the incorporation of [3H]thymidine into the human synovial cells [3]: 500 ng/mL | concentration of glycosaminoglycan in the joint lavage fluid relative to the saline injected group [4]: 1.9 times | weight of the patella after papain digestion relative to the saline injected group [4]: 40%
